Molecular target: TβRII-IgG Fc fusion protein (human) (UniProt P37173)
Test: capture assay on plate-immobilised TβRII-Fc, detection biotin anti-IL-2 / streptavidin-HRP, TMB 450 nm; Kd from the capture curve

Sequence of masked TGF-β1 construct, IL-2 - IgG scaffold - TβRII(Δ25, D118A, E55A) mask - TGF-β1 (P01137 other isoform, or with tags, fused parts or gaps, stated change not applied): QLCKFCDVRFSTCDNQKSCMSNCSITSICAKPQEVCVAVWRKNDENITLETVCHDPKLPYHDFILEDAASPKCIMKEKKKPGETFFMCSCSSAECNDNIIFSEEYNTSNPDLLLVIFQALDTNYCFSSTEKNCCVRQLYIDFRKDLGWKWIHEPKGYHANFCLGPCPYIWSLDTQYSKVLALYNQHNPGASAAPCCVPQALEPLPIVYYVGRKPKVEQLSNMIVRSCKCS
Sequence of masked TGF-β1 construct, IL-2 - IgG scaffold - TβRII(Δ25, D118A, S52L) mask - TGF-β1 (P01137 other isoform, or with tags, fused parts or gaps, stated change not applied): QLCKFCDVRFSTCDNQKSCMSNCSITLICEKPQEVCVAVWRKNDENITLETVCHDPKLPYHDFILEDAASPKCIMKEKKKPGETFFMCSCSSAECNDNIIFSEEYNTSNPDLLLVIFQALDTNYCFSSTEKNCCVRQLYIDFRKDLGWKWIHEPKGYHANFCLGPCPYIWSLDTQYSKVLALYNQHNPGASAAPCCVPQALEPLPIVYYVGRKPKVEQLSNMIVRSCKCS
Sequence of masked TGF-β1 construct, IL-2 - IgG scaffold - TβRII(Δ25, D118A) mask - TGF-β1 (P01137 other isoform, or with tags, fused parts or gaps, stated change not applied): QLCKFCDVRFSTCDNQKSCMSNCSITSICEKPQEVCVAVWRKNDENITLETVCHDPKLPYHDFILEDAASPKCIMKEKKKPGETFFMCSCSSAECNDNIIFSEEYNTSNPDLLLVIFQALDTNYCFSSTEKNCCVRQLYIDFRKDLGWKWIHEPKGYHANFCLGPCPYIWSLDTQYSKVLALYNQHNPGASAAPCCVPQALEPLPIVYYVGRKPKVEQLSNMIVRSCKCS
Sequence of masked TGF-β1 construct, IL-2 - IgG scaffold - TβRII(Δ25, D118A, D32N) mask - TGF-β1 (P01137 other isoform, or with tags, fused parts or gaps, stated change not applied): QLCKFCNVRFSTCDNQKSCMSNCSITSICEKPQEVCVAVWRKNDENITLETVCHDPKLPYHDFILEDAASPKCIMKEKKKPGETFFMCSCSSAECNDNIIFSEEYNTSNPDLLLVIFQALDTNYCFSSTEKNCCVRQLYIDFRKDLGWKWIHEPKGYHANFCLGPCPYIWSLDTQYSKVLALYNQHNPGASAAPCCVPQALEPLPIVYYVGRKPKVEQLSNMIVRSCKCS

| Substance | Kd [µM] |
| --- | --- |
| masked TGF-β1 construct, IL-2 - IgG scaffold - TβRII(Δ25, D118A) mask - TGF-β1 (from UniProt P01137 279-390) (Fc fusion) | 1.51 |
| masked TGF-β1 construct, IL-2 - IgG scaffold - TβRII(Δ25, D118A, S52L) mask - TGF-β1 (from UniProt P01137 279-390) (Fc fusion) | 154 |
| masked TGF-β1 construct, IL-2 - IgG scaffold - TβRII(Δ25, D118A, D32N) mask - TGF-β1 (from UniProt P01137 279-390) (Fc fusion) | 5.9 |
| masked TGF-β1 construct, IL-2 - IgG scaffold - TβRII(Δ25, D118A, E55A) mask - TGF-β1 (from UniProt P01137 279-390) (Fc fusion) | 2.99 |
